Source: paper PMC5615231

Target: recombinant Aβ42 peptide (UniProt P05067)

Chain of extracellular chaperone clusterin (P10909 23-227): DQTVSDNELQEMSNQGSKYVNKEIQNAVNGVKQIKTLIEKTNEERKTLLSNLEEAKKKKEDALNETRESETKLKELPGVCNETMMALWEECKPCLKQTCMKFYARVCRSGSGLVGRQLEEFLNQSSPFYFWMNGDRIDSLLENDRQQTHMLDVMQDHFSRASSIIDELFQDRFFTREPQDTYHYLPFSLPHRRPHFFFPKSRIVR
Chain of extracellular chaperone clusterin (P10909 228-449): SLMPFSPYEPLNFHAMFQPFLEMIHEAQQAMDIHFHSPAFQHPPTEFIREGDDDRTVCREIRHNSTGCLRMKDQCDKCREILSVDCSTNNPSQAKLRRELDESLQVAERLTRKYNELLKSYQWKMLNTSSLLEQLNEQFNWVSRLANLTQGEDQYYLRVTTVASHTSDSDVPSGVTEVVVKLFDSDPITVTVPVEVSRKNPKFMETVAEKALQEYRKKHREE

concentration of clusterin required to reduce by half the Ca^2+ influx into lipid vesicles induced by Aβ42 oligomers (t2 aliquot; dilution series): 0.1 nM
Substance: extracellular chaperone clusterin (from UniProt P10909 23-227; P10909 228-449) (natural protein)
